Test results as given in US20260125477A1 (BEIJING MABWORKS BIOTECH, published 2026).

T1: recombinant human B7-H3 (4Ig) protein, with His tag (human, UniProt Q5ZPR3 29-461, limits assumed)
T1 construct: Bought protein; also called human B7-H3 (4Ig)/B7-H3b protein
T1 sequence (looked up): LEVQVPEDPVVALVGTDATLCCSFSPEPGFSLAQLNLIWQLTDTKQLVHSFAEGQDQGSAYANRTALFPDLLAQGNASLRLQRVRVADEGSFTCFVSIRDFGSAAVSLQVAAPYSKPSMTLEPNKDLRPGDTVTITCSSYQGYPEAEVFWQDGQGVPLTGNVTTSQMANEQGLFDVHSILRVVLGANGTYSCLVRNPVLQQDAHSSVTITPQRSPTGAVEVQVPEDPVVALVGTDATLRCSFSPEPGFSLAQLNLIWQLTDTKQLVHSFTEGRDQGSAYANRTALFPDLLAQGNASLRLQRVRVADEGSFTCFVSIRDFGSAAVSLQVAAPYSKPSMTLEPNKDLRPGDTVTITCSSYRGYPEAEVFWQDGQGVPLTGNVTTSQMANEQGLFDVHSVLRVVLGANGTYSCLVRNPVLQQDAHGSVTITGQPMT

T2: human B7-H4 protein, with His tag (MALS verified) (human, UniProt Q7Z7D3 29-258, limits assumed)
T2 construct: Bought protein
T2 sequence (looked up): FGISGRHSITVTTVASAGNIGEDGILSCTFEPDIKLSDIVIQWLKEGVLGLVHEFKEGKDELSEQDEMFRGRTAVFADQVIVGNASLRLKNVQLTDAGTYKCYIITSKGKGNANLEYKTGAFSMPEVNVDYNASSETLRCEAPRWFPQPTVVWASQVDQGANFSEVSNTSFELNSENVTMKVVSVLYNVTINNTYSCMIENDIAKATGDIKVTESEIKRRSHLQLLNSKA

T3: human B7-H6/NCR3LG1 protein, with His tag (human, UniProt Q68D85 25-262, limits assumed)
T3 construct: Bought protein
T3 sequence (looked up): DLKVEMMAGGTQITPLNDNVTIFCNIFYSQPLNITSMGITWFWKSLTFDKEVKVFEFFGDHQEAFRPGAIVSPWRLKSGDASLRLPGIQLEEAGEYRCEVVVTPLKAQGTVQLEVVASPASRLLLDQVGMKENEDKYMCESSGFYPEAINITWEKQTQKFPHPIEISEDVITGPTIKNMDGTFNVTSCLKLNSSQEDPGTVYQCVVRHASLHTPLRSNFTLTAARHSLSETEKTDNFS

T4: recombinant human CD80 protein (human B7-1/CD80 protein, with His tag) (human, UniProt P33681 35-242)
T4 construct: Bought protein
T4 sequence (looked up): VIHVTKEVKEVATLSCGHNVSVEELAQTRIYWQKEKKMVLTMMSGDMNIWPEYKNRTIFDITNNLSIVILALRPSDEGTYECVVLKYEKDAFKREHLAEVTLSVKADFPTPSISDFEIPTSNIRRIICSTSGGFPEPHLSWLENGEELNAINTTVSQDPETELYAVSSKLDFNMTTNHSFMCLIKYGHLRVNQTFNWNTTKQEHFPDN

T5: human PD-L2/B7-DC protein, with His tag (human, UniProt Q9BQ51 20-219, limits assumed)
T5 construct: Bought protein
T5 sequence (looked up): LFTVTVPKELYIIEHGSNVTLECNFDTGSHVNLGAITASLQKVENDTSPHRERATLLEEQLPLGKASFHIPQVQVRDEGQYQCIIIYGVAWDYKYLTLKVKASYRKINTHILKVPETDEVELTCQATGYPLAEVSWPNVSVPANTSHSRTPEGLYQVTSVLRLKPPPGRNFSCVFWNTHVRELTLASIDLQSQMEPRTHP

T6: human B7-H2/ICOSLG protein, with His tag (human, UniProt O75144 19-258, limits assumed)
T6 construct: Bought protein
T6 sequence (looked up): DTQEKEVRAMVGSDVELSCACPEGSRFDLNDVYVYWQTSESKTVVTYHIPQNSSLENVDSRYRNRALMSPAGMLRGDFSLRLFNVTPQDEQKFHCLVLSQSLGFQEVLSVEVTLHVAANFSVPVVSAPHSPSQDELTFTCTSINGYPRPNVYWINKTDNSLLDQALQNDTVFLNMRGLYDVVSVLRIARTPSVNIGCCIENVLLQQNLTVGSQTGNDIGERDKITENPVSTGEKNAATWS

T7: human B7-H5/Gi24/VISTA protein, with His tag (MALS verified) (human, UniProt Q9H7M9 33-194)
T7 construct: Bought protein
T7 sequence (looked up): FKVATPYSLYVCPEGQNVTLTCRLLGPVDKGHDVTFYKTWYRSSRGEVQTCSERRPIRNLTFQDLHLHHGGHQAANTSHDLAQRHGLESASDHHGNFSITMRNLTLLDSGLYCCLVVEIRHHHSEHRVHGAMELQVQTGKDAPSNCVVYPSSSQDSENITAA

T8: human B7-2/CD86 protein, with His tag (human, UniProt P42081 26-247, limits assumed)
T8 construct: Bought protein
T8 sequence (looked up): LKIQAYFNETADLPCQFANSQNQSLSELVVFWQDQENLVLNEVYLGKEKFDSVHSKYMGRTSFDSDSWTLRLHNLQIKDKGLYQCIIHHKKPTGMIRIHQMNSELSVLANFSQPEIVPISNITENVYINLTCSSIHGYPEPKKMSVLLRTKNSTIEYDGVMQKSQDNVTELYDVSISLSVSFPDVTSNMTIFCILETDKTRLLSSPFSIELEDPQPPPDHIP


Tests used:
Test in all cases: SPR (Biacore T200), antibody captured on Protein A chip, response at 200 nM antigen
[1] = target: T1, recombinant human B7-H3 (4Ig) protein, …
Procedure: (§1) The anti-human B7-H3 antibodies were tested for their binding capability to B7 family proteins by SPR using Biacore T200 biosensor (Biacore, US) provided with a pre-fixed Protein A sensor chip.
(§2) The dissociation was monitored for 600 sec. The data was analyzed using Biacore 8k evaluation software version 3.0, to obtain the binding responses, and the protein concentration-binding response curves were plotted, to determine the cross-reaction of the anti-human B7-H3 antibodies to the B7 family proteins.

[2] = target: T2, human B7-H4 protein, with His tag (MALS …)
Procedure: as §1, §2

[3] = target: T3, human B7-H6/NCR3LG1 protein, with His …
Procedure: as §1, §2

[4] = target: T4, recombinant human CD80 protein (human …)
Procedure: as §1, §2

[5] = target: T5, human PD-L2/B7-DC protein, with His tag
Procedure: as §1, §2

[6] = target: T9, human PD-L1/B7-H1 protein, with His tag (human, UniProt Q9NZQ7 19-238)
T9 construct: Bought protein
Procedure: as §1, §2

[7] = target: T6, human B7-H2/ICOSLG protein, with His tag
Procedure: as §1, §2

[8] = target: T7, human B7-H5/Gi24/VISTA protein, with …
Procedure: as §1, §2

[9] = target: T8, human B7-2/CD86 protein, with His tag
Procedure: as §1, §2

T9 sequence (Q9NZQ7 19-238 limits assumed): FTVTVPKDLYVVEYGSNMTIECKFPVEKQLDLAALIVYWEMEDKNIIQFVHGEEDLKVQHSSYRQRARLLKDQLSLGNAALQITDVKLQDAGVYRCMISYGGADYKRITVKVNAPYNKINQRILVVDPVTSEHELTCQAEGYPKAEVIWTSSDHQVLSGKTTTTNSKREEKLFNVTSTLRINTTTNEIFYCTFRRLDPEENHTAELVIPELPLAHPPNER

| Response (RU) [1] [RU] | Response (RU) [2] [RU] | Response (RU) [3] [RU] | Response (RU) [4] [RU] | Response (RU) [5] [RU] | Response (RU) [6] [RU] | Response (RU) [7] [RU] | Response (RU) [8] [RU] | Response (RU) [9] [RU] | Binder |
| --- | --- | --- | --- | --- | --- | --- | --- | --- | --- |
| 41.9 | 0.3 | -0.5 | 0.2 | -0.2 | 0.3 | -0.1 | 0.6 | -0.2 | 10D7 (antibody, human IgG1, kappa, V domains shown, also called 10D7-WT; Ab10D7) VH: QVQLVQSGPGLVKPSETLSLTCTVSGGSISRSSYYWGWIRQPPGKGLEWIGNIFYAGSTYYNPSLKSRVTISVDTSKNQFSLKLSSVTAADTAVYYCARRITGTTGWFDPWGQGTLVTVSS VL: DIQLTQSPSSLSASVGDRVTITCRASQGIRNDLGWYQQKPGKAPKLLIYAASTLQSGVPSRFSGSGSGTDFTLTISSLQPEDFATYYCLQDYNYPRTFGQGTKVEIKR |
| 25.7 | -2 | -2.2 | -1.8 | -1.2 | -2.2 | -2 | -1.8 | -1.5 | Enoblituzumab (antibody, human IgG1, kappa, V domains shown, Humanized anti-B7-H3 antibody of MacroGenics with optimised Fc, used as the positive control; also called AbEno; enoblituzumab-IgG1-Mut) VH: EVQLVESGGGLVQPGGSLRLSCAASGFTFSSFGMHWVRQAPGKGLEWVAYISSDSSAIYYADTVKGRFTISRDNAKNSLYLQMNSLRDEDTAVYYCGRGRENIYYGSRLDYWGQGTTVTVSS VL: DIQLTQSPSFLSASVGDRVTITCKASQNVDTNVAWYQQKPGKAPKALIYSASYRYSGVPSRFSGSGSGTDFTLTISSLQPEDFATYYCQQYNNYPFTFGQGTKLEIKR |
| 34.8 | 0.5 | -0.2 | 0.6 | -0.2 | 1 | 0.9 | 0.9 | 0.3 | 6B5 (antibody, human IgG1, kappa, V domains shown, also called 6B5-WT; Ab6B5) VH: QVQLVESGPGLVKPSQTLSLTCTVSDGSISSGGYYWSWIRQHPGKGLEWIGYIYYSGGTYYSPSLKSRVTISVDTSKNQFSLKLTSVTAADTAVYYCARRAGYSSSFDSWGQGILVTVSS VL: EIVLTQSPLSLPVTPGEPASISCRSSQSLLYSNGYTYLDWYLQKPGQSPQFLIYLGFNRASGVPDRFSGSGSGTDFTLKISRVEAEDVGVYYCMQGLQTPYTFGQGTKLEIKR |
| 32.5 | 0.3 | -0.4 | 0.7 | 0 | 0.5 | 0.9 | 0.6 | 0.5 | 10F5 (antibody, human IgG1, kappa, V domains shown, also called Ab10F5) VH: QVQLVQSGAEVKKPGSSVKVSCKASGGTFSSQAISWVRQAPGQGLEWMGRIIPMLGIGDYAQSFQGRVTITADKSTSTAYLEVSSLGSEDTAVYYCAREGIAALGTNYYYGMDVWGQGTAVTVSS VL: EIVMTQSPSSVSASVGDRVTITCRASQGISRWLAWYQQKPGKAPKLLIYVASSLQSGVPSRFSGSGSGTDFTLTISSLQPEDFATYYCQQANSFPFTFGPGTKVDIRR |
